Measured values: paper PMC5819829, “Cell-free synthesis of functional antibody fragments to provide a structural basis for antibody–antigen interaction” (PLoS ONE, 2018)

B1: 059-152-Fv (Fv fragment of the fully human anti-EGFR antibody 059-152) (other)
VH: QVQLQESGPGLVKPSETLSLTCTVSGGSISSSSYYWGWIRQPPGKGLEWIGSIYYSGSTYYNPSLKSRVTISVDTSKNQFSLKLSSVTAADTAVYYCARLPMVTMSFDYWGQGTLVTVSS
VL: SYVLTQPPSVSVAPGKTARITCGGNNIGSKSVHWYQQKPGQAPVLVIYYDSDRPSGIPERFSGSNSGNTATLTISRVEAGDEADYYCQVWDSSSDHVVFGGGTKLTVL
notes: also in PDB 5XWD; VL also in PDB 5XWD; Fv: VH and VL synthesised together as two separate chains; source: cell-free synthesis (E. coli S30 extract, dialysis mode, 0.2 mg/ml DsbC), purified (HisTrap, TEV cleavage, SEC); not shown: N11-tag, N-terminal, cleaved
B2: AzF-incorporated 059-152-Fab (Fab, V domains shown)
VH: B1 VH
VL: B1 VL
notes: also in PDB 5XWD; linker inserted just before the stop codon, followed by the amber codon that is read as AzF; AzF is the last residue of the VHCH1 chain, after the linker; also called AzF-incorporated Fab; not shown: N11-tag, N-terminal, cleaved
B3: Alexa-488 conjugated 059-152-Fab (Fab, V domains shown)
VH: B1 VH
VL: B1 VL
notes: also in PDB 5XWD; linker inserted just before the stop codon, followed by the amber codon that is read as AzF; m6 after copper-free click chemistry; also called Alexa-488 conjugated Fab; not shown: N11-tag, N-terminal, cleaved
B4: Alexa-488 conjugated 059-152-Fv (other, human)
VH: B1 VH
VL: B1 VL
notes: also in PDB 5XWD; linker inserted just before the stop codon, followed by the amber codon that is read as AzF; Fv; m3 after copper-free click chemistry; also called Alexa-488 conjugated Fv; not shown: N11-tag, N-terminal, cleaved
B5: AzF-incorporated 059-152-Fv (other, human)
VH: B1 VH
VL: B1 VL
notes: also in PDB 5XWD; linker inserted just before the stop codon, followed by the amber codon that is read as AzF; Fv; AzF is the last residue of the VH chain, after the linker; also called AzF-incorporated Fv; not shown: N11-tag, N-terminal, cleaved
B6: 059-152-Fab (Fab fragment of the fully human anti-EGFR antibody 059-152) (Fab, V domains shown)
VH: B1 VH
VL: B1 VL
notes: also in PDB 5XWD; its VL part is in PDB 5XWD; source: cell-free synthesis (E. coli S30 extract, dialysis mode, 0.8 mg/ml DsbC), purified (HisTrap, TEV cleavage, SEC); not shown: N11-tag, N-terminal, cleaved

Molecular target: T1, EGFR-ECD (extracellular domain of human epidermal growth factor receptor, 1-643) (Homo sapiens, UniProt P00533, N-linked oligosaccharides cleaved by endoglycosidase H)
T1 construct: human epidermal growth factor receptor, extracellular domain, residues 1-643 as printed; A TEV site between the ECD and the His-tag is implied by the cleavage; also called extracellular domain of human EGFR; human EGFR-ECD; source: HEK293S GnTI- cells, transient overexpression, secreted; purified (HisTrap, TEV cleavage of the His-tag, endoglycosidase H, HiTrap Q, SEC); not shown: His-tag, …
Test: SPR; BIAcore 3000; EGFR-ECD immobilised on a CM5 chip by amine coupling; single-cycle kinetics with 50.0, 16.6, 5.55, 1.85 and 0.617 nM Fv or Fab; 30 ul/min, 60-s association, 120-s dissociation; 25 C; HBS-EP+ buffer; triplicate
Details: both partners purified

Binder | Kd [nM] | koff [s⁻¹] | kon [M⁻¹ s⁻¹]
B1 | 5.9 ± 0.1 | 0.0147 | 2.49e+06
B2 | 7 ± 0.1 | 0.0125 | 1.78e+06
B3 | 8.1 ± 0.2 | 0.0133 | 1.67e+06
B4 | 6.1 ± 0.1 | 0.0154 | 2.52e+06
B5 | 5.8 ± 0.2 | 0.0137 | 2.36e+06
B6 | 7.7 ± 0.1 | 0.015 | 1.94e+06
